Data published in patent US8987192B2, “Potent and selective mediators of cholesterol efflux” (The Regents of the University of California, priority 2006, dated 2015).
“Also recorded” adds a separate entry of the source. Where a SMILES comes first, the peptide text is derived from it. Where no end group is shown, it is not given here.

Assays:
[1] = Pharmacokinetic analysis with monophasic decay model; assay type: in vivo
Text: Position 11, i.e., A, in the polypeptide of SEQ ID NO:4 can be substituted with other non-polar (hydrophobic) amino acids as well as other polar non-charged amino acids.

[2] = Pharmacokinetics of iodinated peptide in Sprague-Dawley rats; assay type: in vivo; conditions: for Half-live: IP, time interval 0-30 hours
Protocol: An iodinated version of polypeptide of SEQ ID NO:4, which was modified to have a Y residue at the C-terminus, was administered intravenously to Sprague-Dawley rats. The kinetics reflected a biphasic elimination, which is typical of peptides. […] This distribution pattern resembles what has been reported for ApoA-I and HDL. […] (See, FIG. 23).
The bioavailability in percent was calculated from the area under the curve IP as divided by area under the curve IV after adjustment for residual activity and the bioavailability was about 40%.

[3] = target: ABCA1 (Mus musculus, UniProt P41233); experiment: Cholesterol efflux from [3H]cholesterol-labeled ABCA1-expressing J774 mouse macrophages; assay type: cell-based; set-up: to upregulate cellular ABCA1 protein; endogenous in cells; host or cells: J774 mouse macrophages; conditions: macrophages with vs without cAMP; listed as S26>Y
ABCA1, sequence (P41233 whole entry): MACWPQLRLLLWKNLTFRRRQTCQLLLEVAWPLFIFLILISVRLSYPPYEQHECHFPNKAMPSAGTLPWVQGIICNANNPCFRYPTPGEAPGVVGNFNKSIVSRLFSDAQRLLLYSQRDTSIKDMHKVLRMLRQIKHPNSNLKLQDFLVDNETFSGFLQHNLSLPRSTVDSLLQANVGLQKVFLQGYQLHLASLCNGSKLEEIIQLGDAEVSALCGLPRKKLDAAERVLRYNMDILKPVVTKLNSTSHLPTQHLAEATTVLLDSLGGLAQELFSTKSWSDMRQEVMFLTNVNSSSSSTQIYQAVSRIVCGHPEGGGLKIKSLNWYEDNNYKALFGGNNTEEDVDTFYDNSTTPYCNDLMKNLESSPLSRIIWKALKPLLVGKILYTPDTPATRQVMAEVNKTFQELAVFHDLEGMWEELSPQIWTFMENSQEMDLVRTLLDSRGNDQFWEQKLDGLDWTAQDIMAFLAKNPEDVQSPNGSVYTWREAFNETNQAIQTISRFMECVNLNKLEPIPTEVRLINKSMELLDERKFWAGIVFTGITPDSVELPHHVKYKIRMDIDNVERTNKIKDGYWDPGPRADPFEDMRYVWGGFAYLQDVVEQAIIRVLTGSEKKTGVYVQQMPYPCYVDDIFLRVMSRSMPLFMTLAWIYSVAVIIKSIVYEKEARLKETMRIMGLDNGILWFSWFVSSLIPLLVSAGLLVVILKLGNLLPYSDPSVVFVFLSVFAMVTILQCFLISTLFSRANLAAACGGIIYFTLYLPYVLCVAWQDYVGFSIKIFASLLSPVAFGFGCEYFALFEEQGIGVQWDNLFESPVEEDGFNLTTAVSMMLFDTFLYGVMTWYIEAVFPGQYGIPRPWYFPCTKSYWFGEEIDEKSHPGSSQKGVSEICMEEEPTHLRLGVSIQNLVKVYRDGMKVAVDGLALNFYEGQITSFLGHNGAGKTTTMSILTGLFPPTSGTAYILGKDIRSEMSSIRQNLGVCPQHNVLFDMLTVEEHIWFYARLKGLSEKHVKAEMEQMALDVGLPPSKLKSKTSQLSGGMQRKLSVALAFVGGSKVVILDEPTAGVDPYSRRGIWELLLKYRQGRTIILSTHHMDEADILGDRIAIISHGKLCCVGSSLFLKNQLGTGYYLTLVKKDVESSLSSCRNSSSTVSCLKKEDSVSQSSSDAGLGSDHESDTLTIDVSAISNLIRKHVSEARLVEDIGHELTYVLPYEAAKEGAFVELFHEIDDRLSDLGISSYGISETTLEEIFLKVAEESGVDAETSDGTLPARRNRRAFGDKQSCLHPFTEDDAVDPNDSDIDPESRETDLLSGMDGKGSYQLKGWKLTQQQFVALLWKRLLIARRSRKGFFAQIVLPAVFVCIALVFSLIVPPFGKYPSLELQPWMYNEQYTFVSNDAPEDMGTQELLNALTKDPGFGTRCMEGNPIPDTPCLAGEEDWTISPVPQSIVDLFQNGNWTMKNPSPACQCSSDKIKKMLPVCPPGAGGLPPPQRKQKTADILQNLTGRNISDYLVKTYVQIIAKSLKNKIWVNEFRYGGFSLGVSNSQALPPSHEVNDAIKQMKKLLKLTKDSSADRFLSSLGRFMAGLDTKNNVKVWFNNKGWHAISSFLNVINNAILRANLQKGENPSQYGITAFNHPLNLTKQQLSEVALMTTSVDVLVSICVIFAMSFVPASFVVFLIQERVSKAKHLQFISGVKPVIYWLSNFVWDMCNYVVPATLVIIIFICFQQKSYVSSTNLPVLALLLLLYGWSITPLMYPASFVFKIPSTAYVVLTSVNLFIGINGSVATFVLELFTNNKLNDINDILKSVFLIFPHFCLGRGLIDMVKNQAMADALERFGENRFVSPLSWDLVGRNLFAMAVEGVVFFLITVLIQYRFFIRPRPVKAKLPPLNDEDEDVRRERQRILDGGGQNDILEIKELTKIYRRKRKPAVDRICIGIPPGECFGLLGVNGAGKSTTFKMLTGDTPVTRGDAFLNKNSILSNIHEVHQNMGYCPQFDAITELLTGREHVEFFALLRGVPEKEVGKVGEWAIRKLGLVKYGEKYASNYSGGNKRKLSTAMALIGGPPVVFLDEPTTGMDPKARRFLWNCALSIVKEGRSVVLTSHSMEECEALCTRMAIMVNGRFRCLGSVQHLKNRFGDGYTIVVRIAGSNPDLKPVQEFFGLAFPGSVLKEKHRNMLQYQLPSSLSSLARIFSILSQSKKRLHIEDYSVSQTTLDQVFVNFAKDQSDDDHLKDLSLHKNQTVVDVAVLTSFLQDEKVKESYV
Protocol: In some embodiments, a polypeptide known to mediate cholesterol efflux (e.g., helix 9/10 of Apo A-I) is used to screen for additional mediators of cholesterol efflux in a cell based assay. For example, cell lines in which cholesterol efflux can be enhanced using a cAMP analog that up-regulates ABCA1 protein expression (e.g., J774 macrophages) can conveniently be used to assess the ability of a polypeptide of the present invention to mediate cholesterol efflux. The cells are incubated with labeled cholesterol (e.g., [^3H]cholesterol) under conditions appropriate for cholesterol uptake by the cells. Thus, cAMP or cAMP analogs (e.g., CPT-cAMP) are incubated with the cells for a suitable time before the initiation of cellular cholesterol efflux, i.e., prior to contacting the cells with a test polypeptide. Measurement of labeled cholesterol appearing in the medium is used to determine the cholesterol efflux mediating activity of the test polypeptide.
J774 mouse macrophages labeled with [^3H]cholesterol were treated (20 h) with 22-hydroxycholesterol (10 μM)/cis-retinoic acid (10 μM) to upregulate cellular ABCA1 protein.
Mouse macrophages were labeled with [^3H]cholesterol and treated with a cAMP analog to induce ABCA1 expression. […] Km values were calculated using the Michaelis-Menton equation and GraphPad Prism4 software.
Inverted sequence peptides synthesized with all L-amino acids and all D-amino acids were tested for cholesterol efflux activity using ABCA1 expressing J774 macrophages.
Two peptide analogs were engineered; the first replacing glutamic acid residues (E) at position 8 and 15 with aspartic acid residues (D), i.e., E8, 15>D polypeptides, and the second, replacing E1, 7, 8, 15, 18, 19 with D, i.e., all D (Asp) polypeptide. Cholesterol efflux activity was determined using J774 macrophages treated with and without a cAMP analog to modulate ABCA1 expression.
The impact of the A12>L substitution was also tested for activity, which also expanded non-polar surface area.
1-palmitoyl-2-oleoyl-phosphatidylcholine (POPC) was used to evaluate the cholesterol efflux properties of a formulated polypeptide of the present invention. […] To test cholesterol efflux activity, J774 mouse macrophages were labeled with [^3H]cholesterol and treated with and without cAMP to modulate ABCA1 expression.

[4] = system: Apolipoprotein E knock-out mice; experiment: Atherosclerosis in Apolipoprotein E knock-out mice on Western diet, pooled series (Example 19); assay type: in vivo, mouse; conditions: 30 mg/kg IP, 21 injections, pooled data of three series
Protocol: The polypeptide of SEQ ID NO:4 and its Y26 analog have been evaluated with respect to ability to inhibit atherosclerosis in Apolipoprotein E knock-out mice. The mice were given Western diet for 18 weeks and then randomized to receive saline, free polypeptide or polypeptide-phospholipid complex. […] The degree of atherosclerosis was then determined in whole aorta and aortic root/sinus. Three experimental series were performed. […] The results are equal to or better than previously have been obtained with IV infusions of 40 mg/kg Apolipoprotein A-I Milano/phospholipids complex into Apo E knock-out mice (Shah et al., Circ., 97:780-5, 1998).
As noted above, data from three experimental series were pooled. Pooling of data is justified as only minor changes in the procedures were made (21 injections at 30 mg/kg over 42 and 21 days, respectively), and the diet regimens and sources of mice and polypeptide, respectively, were the same. In the first experiment S26 was substituted for Y26.

Compound	pharmacokinetic properties compared to parent polypeptide [1]	Half-live ([2]; listed as SEQ ID NO: 4/Y26 peptide) [h]	Half-live ([2]; modified to include a tyrosine at the C-terminus)	Half-live ([2]; which was modified to have a Y residue at the C-terminus)	distribution volume relative to plasma volume ([2]; IV)	Correlation ([2]; IV, 0-2.5 hours)	Half-live, first phase ([2]; IV, 0-2.5 hours) [h]	Clearance ([2]; IV, 2.5-24 hours) [mL/h/kg]	Half-live, terminal (second phase) ([2]; IV, 2.5-24 hours) [h]	Volume of distribution ([2]; IV, 2.5-24 hours) [L/kg]	Half-live, terminal (second phase) ([2]; IV, 2.5-24 hours, modified to include a tyrosine at the C-terminus)	Half-live, terminal (second phase) ([2]; IV, 2.5-24 hours, which was modified to have a Y residue at the C-terminus)	ABCA1-dependent cholesterol efflux [3]	antiatherosclerotic effect (whole aorta and aortic root/sinus) [4]
CC(C)C[C@H](NC(=O)[C@H](Cc1ccccc1)NC(=O)[C@H](CCC(=O)O)NC(=O)[C@H](CCC(=O)O)NC(=O)[C@H](C)NC(=O)[C@H](Cc1ccccc1)NC(=O)[C@H](CCC(=O)O)NC(=O)[C@H](CCCNC(=N)N)NC(=O)[C@H](Cc1ccccc1)NC(=O)[C@H](C)NC(=O)[C@H](Cc1ccc(O)cc1)NC(=O)[C@H](Cc1ccccc1)NC(=O)[C@H](Cc1c[nH]c2ccccc12)NC(=O)[C@H](CCC(=O)O)NC(=O)[C@H](CCC(=O)O)NC(=O)[C@H](CC(C)C)NC(=O)[C@H](CCCCN)NC(=O)[C@H](CO)NC(=O)[C@H](CCCNC(=N)N)NC(=O)[C@@H](NC(=O)[C@@H](N)CCC(=O)O)C(C)C)C(=O)N[C@@H](C)C(=O)N[C@@H](CCCNC(=N)N)C(=O)N[C@@H](CC(C)C)C(=O)N[C@@H](CCCCN)C(=O)N[C@@H](CO)C(=O)O [A11>Y11] (H-EVRSKLEEWFYAFREFAEEFLARLKS-OH)	identical pharmacokinetic properties	–	–	–	–	–	–	–	–	–	–	–	–	–
SEQ ID NO: 4/Y26: SEQ ID NO:4 with serine 26 replaced by tyrosine; iodinated version used for pharmacokinetics (EVRSKLEEWFAAFREFAEEFLARLKY; also: iodinated version used for pharmacokinetics)	–	11.2	about 11 hours	about 11.2 hours	approximately twice as large as the plasma volume	−0.95	4.5	1.2	33.7	0.0557	about 34 hours	approximately 34 hours	stimulated ABCA1 cholesterol efflux like the parent 26-mer polypeptide; also recorded: retained ABCA1-dependent cholesterol efflux activity	significant antiatherosclerotic effects
